Here are results for two molecules from paper PMC6212719.

Data set [1] deals with MtbRNAP core (alpha2 beta beta' omega);sigma B;RbpA (Mycobacterium …, UniProt P9WGZ1;P9WGY9;P9WGY7;P9WGY5;P9WGI5;P9WHJ5 1-347;1-1178;1-1316;1-110;1-323;1-111, ||). Put plainly: EMSA.
Data set [2] deals with T1, MtbRNAP core (alpha2 beta beta' omega);sigma B (Mycobacterium …, UniProt P9WGZ1;P9WGY9;P9WGY7;P9WGY5;P9WGI5 1-347;1-1178;1-1316;1-110;1-323, |). Put plainly: EMSA.
In data set [3] the target is MtbRNAP core (alpha2 beta beta' omega);sigma B;RbpA R79A (Mycobacterium …, UniProt P9WGZ1;P9WGY9;P9WGY7;P9WGY5;P9WGI5;P9WHJ5 1-347;1-1178;1-1316;1-110;1-323;1-111, ||R79A). Put plainly: KMnO4 footprinting.
Data set [4] has as its target MtbRNAP core (alpha2 beta beta' omega);sigma B;RbpA KKAA (Mycobacterium …, UniProt P9WGZ1;P9WGY9;P9WGY7;P9WGY5;P9WGI5;P9WHJ5 1-347;1-1178;1-1316;1-110;1-323;1-111, ||K73A;K74A). The data set can be described thus: EMSA.
The target of data set [5] is T1, MtbRNAP core (alpha2 beta beta' …). Put plainly: EMSA. This is another data set of the same source.

Where a chain is given by its changes, count along the chain named.

B1: sigAP-TGTG (dsDNA)
DNA 1: CACTGAAACTTGCCCGCTCGGGCTGTACTCGTGCGCAGTTGTGTTACAATGGTCAGCGGCGGCCGCCCGACCGATAGCGCGCGAGTATTCACGCTGATATCAACGC
DNA 2: GCGTTGATATCAGCGTGAATACTCGCGCGCTATCGGTCGGGCGGCCGCCGCTGACCATTGTAACACAACTGCGCACGAGTACAGCCCGAGCGGGCAAGTTTCAGTG
For the molecule B1, the Kd in data set [1] was found to be 42 nM; in data set [2] it was 117 nM. Also, the binding result in data set [3] and in data set [4] was “binds” in each case.

B2: sigAP-TG1 (dsDNA)
DNA 1: B1 DNA 1 with T40A, G41A
DNA 2: B1 DNA 2 with C66T, A67T
B2: the binding result in data set [5] is on record as “binds”.
